From paper PMC10625565

Biological target: GST-PpROP4CA (G15V)
Assay: pull-down (MBP pull-down, Coomassie-stained SDS-PAGE, band quantification)
Conditions: chain shown with the change; three replicates; parent: est. 0.31; read off a plot

GST-PpROP4CA (G15V), sequence (chain, as listed by the source G15V): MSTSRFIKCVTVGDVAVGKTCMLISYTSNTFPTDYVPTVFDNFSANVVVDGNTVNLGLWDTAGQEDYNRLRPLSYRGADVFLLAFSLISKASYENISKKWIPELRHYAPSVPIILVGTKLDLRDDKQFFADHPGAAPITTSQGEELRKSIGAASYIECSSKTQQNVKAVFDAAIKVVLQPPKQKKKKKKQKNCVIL

Binder	other: Protein ratio
MBP-PpRopGAP1 (wild type), A0A2K1KNT6 R239L (protein) MTQVLPTQIHLGSFTPDQSESEDYVNALHYVSDTDTDGYSGNHASPMILGDATISIRELCKEPEARKSGLSHSSSFSSITRGRWGEIGARSRNGSLNRRHSSFRSGSFNRSNNDQERERSAQLSLVALLLATVRRSVLTMCQDVEEGDESSLEIGWPTDVQHVAHVTFDRYNGFLGLPQEFEVEVPGRVPSASQSVFGVSAESMQCSYDHNGNSVPTILLLMQERLYHQGGLKAEGIFLINAENSHHEHVRDQLNKGIVPMDIDSYCLAGLIKAWFRELPQGVLDVLTPEQVLECHTEEESVALVKLLPPTQAALLDWAVNLMADVVQDEVVNKMNARNIAMVFAPNMTQMADPLTALMHAVQVMNLLKTLILRTLKDREEAILEQAQGLTRAEASEGDEPDSECNNVVLTSQERQNSLREEEASKVDCDEYSQRILIPVKRNTKVNSISKSGNLVNTIDHNNQRVEAW	0.25
MBP-PpRopGAP1 (wild type), A0A2K1KNT6 H165A (protein) MTQVLPTQIHLGSFTPDQSESEDYVNALHYVSDTDTDGYSGNHASPMILGDATISIRELCKEPEARKSGLSHSSSFSSITRGRWGEIGARSRNGSLNRRHSSFRSGSFNRSNNDQERERSAQLSLVALLLATVRRSVLTMCQDVEEGDESSLEIGWPTDVQHVAAVTFDRYNGFLGLPQEFEVEVPGRVPSASQSVFGVSAESMQCSYDHNGNSVPTILLLMQERLYHQGGLKAEGIFRINAENSHHEHVRDQLNKGIVPMDIDSYCLAGLIKAWFRELPQGVLDVLTPEQVLECHTEEESVALVKLLPPTQAALLDWAVNLMADVVQDEVVNKMNARNIAMVFAPNMTQMADPLTALMHAVQVMNLLKTLILRTLKDREEAILEQAQGLTRAEASEGDEPDSECNNVVLTSQERQNSLREEEASKVDCDEYSQRILIPVKRNTKVNSISKSGNLVNTIDHNNQRVEAW	0.1
